Assay [1] deals with native AdcAII of Streptococcus pneumoniae D39 (Streptococcus pneumoniae D39 (endogenous in D39 membranes)). Nature of the assay: cross-linking + co-IP; S. pneumoniae D39 membrane preparations incubated with the thiol-cleavable cross-linker DTSSP (0.8 mM, 1 h) before the immuno-precipitation (x-IP); polyclonal antibody against AdcAII and protein A sepharose; immunoblot, signals quantified with Image J. (Immunoblotting shows a protein as a band on a membrane.)

Assay [2] shares this target. Nature of the assay: co-IP; S. pneumoniae D39 membranes solubilised in 2% Triton X-100, not cross-linked (IP); polyclonal antibody against AdcAII and protein A sepharose; 50 mM HEPES, 150 mM NaCl, pH 8, washes with 2% Triton X-100; immunoblot, signals quantified with Image J.

Regarding “native PhtD (polyhistidine triad protein D) of Streptococcus pneumoniae D39 (natural protein)”, the percentage of membrane-bound protein immuno-precipitated by AdcAII polyclonal antibodies in assay [1] worked out at 12%; in assay [2], 1.7%.

The record behind these values is article PMC3842936.
